B1: EXT017-54 scFv phage clone (scFv)
scFv: QAVLTQPPSLSGGPRQRVTISCSGSTSNIGKNGVSWYQQLPGKAPKLLIYNDHLLSSGVSDRFSGSKSGTSASLAISGLQSDDEADYYCATWDDTLDLPLFGGGTKVTVLGSRGGGGSGGGGSGGGGSLEMAQMQLVQSGAEVEKPGASVKLSCKASGGTFSSYAISWVRQAPGQGLEWMGGIIPIFGTANYAQKFQGRVTITADESTSTAYMELSSLRSEDTAVYYCARPSYYSIKSAWDHWGQGTLVTVSSTSGQAGQHHHHHHGAYPYDVPDYAS
notes: full-length scFv with His+HA tags; also called EXT017-54 phage
B2: #55 (scFv)
scFv (VL-linker-VH-His/HA tag): QSALTQPASVSGSPGQSITISCTGPTSDFNDYLFVSWYQQHPGKAPKLILYDVTHRPSGVSGRFSGSKSASTASLTISGLQAEDEADYFCGSKTGRTTYVFGTGTKVTVLGSRGGGGSGGGGSGGGGSLEMAQVQLVQSGAEVKKPGASVKVSCKASGYTFDNFGISWVRQAPGQGLEWMGWINTYDGYTNYVEKLQGRVTMTTDTSTGTAYMELRGLRSDDTAVYYCARSVPHQISYGDLWGQGTLVTVSSTSGQAGQHHHHHHGAYPYDVPDYAS
notes: also called EXT017-55; EXT017-55 scFv phage clone
B3: #34 (scFv)
scFv (VL-linker-VH-His/HA tag): QSALTQPPSASGSPGQSVTISCTGTSSDVGAYNYVSWYQHYPGKAPKLMIYEVSERPSGVPDRFSGSKSGNTASLTVSGLQAEDEADYFCSSYAGSNNFVFGTGTKVTVLGSRGGGGSGGGGSGGGGSLEMAEVQLVQSGAEVKKPGSSVKVSCKASGGTFSSYAISWVRQAPGQGLEWMGRIIPILGIANYAQKFQGRVTITADKSSSTAYMALSSLTSEDTAVYYCARGGDYVESWFDPWGQGTLVTVSSTSGQAGQHHHHHHGAYPYDVPDYAS
notes: also called EXT017-34; EXT017-34 scFv phage clone
B4: EXT017-32 scFv phage clone (scFv)
scFv: QSVLTQPPSVSVAPGKTARITCGGNNIGSKSVHWYQQKPGQAPVLVIYYDSDRPSGIPERFSGSNSGNTATLTISRVEAGDEADYYCQVWDSSSDHYVFGTGTKVTVLGSRGGGGSGGGGSGGGGSLEMAEVQLVESGGGVVQPGRSLRLSCAASGFTFNNHAMHWVRQAPGKGLEWVAVISFDGDDKFYADSVKGRFTISRDNSRNTLFLQMNNLRPEDTAVYYCSRDPYHFASGSYSYFDYWGQGTLVTVSSTSGQAGQHHHHHHGAYPYDVPDYAS
notes: also called EXT017-32 phage; phage clone #32
B5: #29 (scFv)
scFv (VL-linker-VH-His/HA tag): QSVLTQPPSVSAAPRQKVTISCSGSSSNIGNNYVSWYQQLPGTAPKLLIYDDNKRPSGIPDRFSGSKSGTSATLGITGLQTGDEADYYCGTWDSSLSAVVFGGGTKLTVLGSRGGGGSGGGGSGGGGSLEMAQVQLVQSGTEVKRAGASVKVSCKASGYTFTNYYMHWVRQAPGQGLEWMGIINPSIGSTNYAQKFQGRVTMTRDTSTSTVFMELSSLRSDDTAVYYCARSFGDSDGADSWGQGTLVTVSSTSGQAGQHHHHHHGAYPYDVPDYAS
notes: also called EXT017-29; EXT017-29 scFv phage clone
B6: EXT017-28 scFv phage clone (scFv)
scFv: QSVLTQPPSVSGAPGQRVTISCTGSSSNIGAGYDVHWYQQLPGTAPKLLIYGNSDRPSGVPDRFSGSKSGTSASLAITGLQAEDEADYYCQSYDSSLSGYVFGTGTKVTVLGSRGGGGSGGGGSGGGGSLEMAQMQLVQSGAEVKKPGSSVKVSCKASGGTFSTYAISWVRQAPGQGLEWMGGIIPIFGTANYAQKFQGRVTITADKSTSTAYMEVRNLRSEDTAVYYCARAEYVYGEYDQWGQGTLVTVSSTSGQAGQHHHHHHGAYPYDVPDYAS
notes: full-length scFv with His+HA tags; also called EXT017-28 phage; phage clone #28
B7: #25 (scFv)
scFv (VL-linker-VH-His/HA tag): QSVLTQPPSVSAAPGQKVTISCSGSSSNIGNNYVSWYQFLPGTAPKLLIYDNNQRPSGIPDRFSGFKSGTSATLDITGLQTGDEADYYCGTWDNSLSAAVFGRGTKLTVLGSRGGGGSGGGGSGGGGSLEMAQMQLVQSGTEVKRAGASVKVSCKASGYTFTNYYMHWVRQAPGQGLEWMGIINPSGGSTTYAQKFQGRVTMTRDTSTSTVYMELSDLGSEDTAVYYCARSWSKTEGSDRWGQGTLVTVSSTSGQAGQHHHHHHGAYPYDVPDYAS
notes: also called EXT017-25; EXT017-25 scFv phage clone
B8: EXT017-21 scFv phage clone (scFv)
scFv: SYELTQPPSVSVAPGQTASMTCGGNNIGSKSVHWYQQKPSQAPVMVVHDDSERPSGIPERISGSKSGNTATLTISRVEAGDEADYYCQVWDSSSDHVIFGGGTKLTVLGSRGGGGSGGGGSGGGGSLEMAQVQLVQSGAEVKKPGASVKVSCKASGYTFTNYYIHWVRQAPGQGLEWMGIIRPSGGITNYAQKFQGRVSMTRDTSTSTVYMELSSLRSEDTAVYYCARSWMSDSYYDGWGQGTLVTVSSTSGQAGQHHHHHHGAYPYDVPDYAS
notes: also called phage clone #21

Assays:
[1] = biological target: T1, HLA-A*02:01 on T2 cells alone (no peptide added) (human); assay: flow cytometry, phage on T2 without peptide
T1 construct: TAP-deficient T2 cells without pulsed peptide; negative control target, and the HLA molecule whose stabilisation by peptides is read in the T2 stabilization assay; also called HLA-A*02 molecule; HLA-A2 molecule

[2] = biological target: T2, Foxp3-7 peptide/HLA-A*02:01 complex on the cell surface (human); assay: flow cytometry, phage on T2 + Foxp3-7 peptide; secondary only 318, unstained 95.8
T2 construct: also called Foxp3-7/HLA-A2 complex

[3] = biological target: T2, Foxp3-7 peptide/HLA-A*02:01 complex on …; assay: flow cytometry, phage on T2 + Foxp3-7 peptide; secondary only 104, unstained 81.7
[4] = biological target: T3, 017-mut5 peptide (…)/HLA-A*02:01 complex on T2 cells (human); assay: flow cytometry, phage on peptide-loaded T2 cells
T3 construct: Alanine mutant at position 5

[5] = biological target: T2, Foxp3-7 peptide/HLA-A*02:01 complex on …; assay: flow cytometry, phage on peptide-loaded T2 cells
[6] = biological target: T4, 017-mut3 peptide (…)/HLA-A*02:01 complex on T2 cells (human); assay: flow cytometry, phage on peptide-loaded T2 cells
T4 construct: Alanine mutant at position 3

[7] = biological target: T5, 017-mut7 peptide (…)/HLA-A*02:01 complex on T2 cells (human); assay: flow cytometry, phage on peptide-loaded T2 cells
T5 construct: Alanine mutant at position 7

[8] = biological target: T6, 017-mut9 peptide (…)/HLA-A*02:01 complex on T2 cells (human); assay: flow cytometry, phage on peptide-loaded T2 cells
T6 construct: Alanine mutant at position 9

[9] = biological target: T7, 017-mut2 peptide (…)/HLA-A*02:01 complex on T2 cells (human); assay: flow cytometry, phage on peptide-loaded T2 cells
T7 construct: Alanine mutant at position 2, the anchor position; the peptide may load poorly onto HLA-A2; also called EXT017-mut2

[10] = biological target: T8, 017-mut1 peptide (…)/HLA-A*02:01 complex on T2 cells (human); assay: flow cytometry, phage on peptide-loaded T2 cells
T8 construct: Alanine mutant of Foxp3-7 at position 1, pulsed onto T2 cells; also called EXT017-mut1

[11] = biological target: T9, 017-mut8 peptide (…)/HLA-A*02:01 complex on T2 cells (human); assay: flow cytometry, phage on peptide-loaded T2 cells
T9 construct: Alanine mutant at position 8; also called TLI-A8

[12] = biological target: T1, HLA-A*02:01 on T2 cells alone (no …); assay: flow cytometry, phage on T2 cells, no peptide
T2+EW [13] = biological target: T10, T2+EW (Homo sapiens, UniProt A*02:01); assay: flow cytometry, phage on T2 + EW peptide; secondary only 310, unstained 93
T10 construct: on the surface of T2 cells; irrelevant control peptide; also called EW peptide/HLA-A*02:01 complex on T2 cells; T2 pulsed with EW peptide

[14] = biological target: T11, R3 (RHAMM-R3) peptide/HLA-A*02:01 complex on T2 cells (human); assay: flow cytometry, phage on T2 + R3 peptide (as the table names the samples); secondary only 109, unstained 80.9
T11 construct: Control target of the phage staining of T2 cells; also called T2 cells pulsed with R3 peptide; RHAMM 3 (R3)

[15] = biological target: T1, HLA-A*02:01 on T2 cells alone (no …); assay: flow cytometry, phage on T2 without peptide; secondary only 320, unstained 91.4
[16] = biological target: T1, HLA-A*02:01 on T2 cells alone (no …); assay: flow cytometry, phage on T2 without peptide; secondary only 121, unstained 106
[17] = biological target: T2, Foxp3-7 peptide/HLA-A*02:01 complex on …; assay: flow cytometry, phage on T2 + Foxp3-7 peptide; secondary only 116, unstained 93.8
[18] = biological target: T11, R3 (RHAMM-R3) peptide/HLA-A*02:01 …; assay: flow cytometry, phage on T2 + R3 peptide; secondary only 123, unstained 99.8
[19] = biological target: T12, 017-mut4 peptide (…)/HLA-A*02:01 complex on T2 cells (human); assay: flow cytometry, phage on peptide-loaded T2 cells
T12 construct: Alanine mutant at position 4

[20] = biological target: T1, HLA-A*02:01 on T2 cells alone (no …); assay: flow cytometry, phage on T2 cells
[21] = biological target: T2, Foxp3-7 peptide/HLA-A*02:01 complex on …; assay: flow cytometry, phage on T2 + Foxp3-7 peptide; secondary only 133, unstained 103
T2+EW [22] = biological target: T10, T2+EW; assay: flow cytometry, phage on T2 + EW peptide; secondary only 113, unstained 94.7
[23] = biological target: T1, HLA-A*02:01 on T2 cells alone (no …); assay: flow cytometry, phage on T2 without peptide; secondary only 100, unstained 99.5

Binder	binding result [1]	Median:FITC-A [2]	Median:FITC-A [3]	MFI [4]	MFI [5]	MFI [6]	MFI [7]	MFI [8]	MFI [9]	MFI [10]	MFI [11]	MFI [12]	Median:FITC-A (T2+EW [13])	Median:FITC-A [14]	Median:FITC-A [15]	Median:FITC-A [16]	Median:FITC-A [17]	Median:FITC-A [18]	binding result [20]	also measured
B1	no binding	732	4370	91.2	30400	7780	91.1	3540	94.7	23500	5850	89.9	364	122	343	–	–	–	–	–
B2	no binding	–	–	–	–	–	–	–	–	–	–	–	391	–	389	–	–	–	–	–
B3	no binding	1050	–	–	–	–	–	–	–	–	–	–	386	–	361	–	–	–	–	–
B4	–	1640	3840	2710	27500	21000	99.6	93.6	103	15100	96.7	91.8	357	123	356	138	4070	136	no binding	MFI [19]: 20800
B5	no binding	1010	–	–	–	–	–	–	–	–	–	–	359	–	369	–	–	–	–	–
B6	–	1740	2790	107	39500	13400	96.4	5890	102	20100	27500	93.9	338	118	353	144	873	140	no binding	MFI [19]: 108
B7	no binding	1030	–	–	–	–	–	–	–	–	–	–	375	–	386	–	–	–	–	–
B8	–	–	2220	–	–	–	–	–	–	–	–	–	–	123	–	147	428	143	no binding	Median:FITC-A [21]: 1550; Median:FITC-A (T2+EW [22]): 143; Median:FITC-A [23]: 138
